Data: CN117751141A
Substitutions are numbered along the chain they refer to.

T1: CD300c overexpressed on the surface of 293T cells and THP-1 cells (UniProt Q08708)
T1 sequence (looked up): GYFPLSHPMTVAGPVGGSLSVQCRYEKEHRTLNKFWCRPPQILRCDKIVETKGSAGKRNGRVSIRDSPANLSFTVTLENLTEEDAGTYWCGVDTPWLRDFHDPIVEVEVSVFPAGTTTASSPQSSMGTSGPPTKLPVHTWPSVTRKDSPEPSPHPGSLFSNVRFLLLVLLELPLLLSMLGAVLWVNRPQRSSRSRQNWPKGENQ

T2: CD300c抗原(11832-H08H，义翘神州) (UniProt Q08708)
T2 sequence (looked up): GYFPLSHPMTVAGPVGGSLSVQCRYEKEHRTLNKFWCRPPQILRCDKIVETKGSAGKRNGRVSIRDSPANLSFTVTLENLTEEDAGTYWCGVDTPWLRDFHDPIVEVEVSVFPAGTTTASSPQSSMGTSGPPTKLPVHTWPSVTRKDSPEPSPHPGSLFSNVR

T3: 小鼠CD300c抗原 (小鼠 (mouse))
T3 sequence (A2A7V7 whole entry, looked up): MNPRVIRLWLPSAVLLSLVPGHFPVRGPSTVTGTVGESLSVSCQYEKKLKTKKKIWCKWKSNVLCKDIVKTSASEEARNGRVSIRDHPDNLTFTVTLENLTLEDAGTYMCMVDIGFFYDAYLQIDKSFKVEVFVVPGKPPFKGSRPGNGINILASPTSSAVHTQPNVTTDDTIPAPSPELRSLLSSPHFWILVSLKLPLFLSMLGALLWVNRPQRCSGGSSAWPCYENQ

B1: 抗CD300c单克隆抗体 CL7 (antibody, from another filing, V domains shown)
VH: EVQLLESGGGLVQPGGSLRLSCAASGFTFSRYAMSWVRQAPGKGLEWVSAISGSGGSTYYADSVKGRFTISRDNSKNTLYLQMNSLRAEDTAVYYCARSSQGIFDIWGQGTLVTVSS
VL: QSVLTQPPSASGTPGQRVTISCSGNNIGTRRVHWYQQLPDTAPKLLIYSKNNRPSGVPDRFSGSKSGTSASLAISGLRSEDEADYYCAAWDDSLSGPVFGGGTKLTVL
B2: 抗CD300c单克隆抗体 CL10 (antibody, from another filing, V domains shown)
VH: EVQLLESGGGLVQPGGSLRLSCAASGFTFSSYGMHWVRQAPGKGLEWVSAISGSGGSTYYADSVKGRFTISRDNSKNTLYLQMNSLRAEDTAVYYCASGYGLMDVWGQGTLVTVSS
VL: QSVLTQPPSASGTPGQRVTISCTRSSGIIASNYVQWYQQLPGTAPKLLIYRNNQRPSGVPDRFSGSKSGTSASLAISGLRSEDEADYYCSSYAGNNNLVFGGGTKLTVL
B3: 抗CD300c单克隆抗体 SL18 (antibody, from another filing)
chain: RVQLLESGGGLVQPGGSLRLSCAASGFTFSDYHMHWVRQAPGKGLEWVSTISSSGGYTYYAESVKSRFTISRDNSKNTLYLQMNSLRAEDTAVYYCARSIRLPLDYWGQGTLVTVSSSGGGSGGGGSGGGGSQSVLTQPPSASGTPGQRVTISCSGNNIGSKGVHWYQQLPGTAPKLLIYEDSKRPSGVRDRFSGSKSGTSASLAISGLRSEDEADYYCQSYDSTKGVVFGGGTKLTVL
B4: 抗CD300c单克隆抗体 CL9 (antibody, from another filing, V domains shown)
VH: B1 VH with R31S, A33Y, M34W, S99I, S100D, Q101V, G102Y, I103G
VL: QSVLTQPPSASGTPGQRVTISCSGSTSNIGTNYVYWYQQLPGTAPKLLIYDNNNRPSGVPDRFSGSKSGTSASLAISGLRSEDEADYYCQTWDSSTDVVFGGGTKLTVL
B5: 抗CD300c单克隆抗体 SK11 (antibody, from another filing, V domains shown)
VH: B2 VH with E1R, S31T, S98R, Y100L, G101S, L102G, M103L, V105Y
VL: EIVLTQSPGTLSLSPGERATLSCRSSQGITNYLAWYQQKPGQAPRLLIYDASNRATGIPDRFSGSGSGTDFTLTISRLEPEDFAVYYCQQSYSTPLTFGQGTKVEIK
B6: 抗CD300c单克隆抗体 SK12 (antibody, from another filing)
chain: RVQLLESGGGLVQPGGSLRLSCAASGFTFSSYAMHWVRQAPGKGLEWVSAISGSGGDTYHADSVKGRFTISRDNSKNTLYLQMNSLRAEDTAVYYCTRGLSGFDYWGQGTLVTVSSGGGGSGGGGSGGGGSEIVLTQSPGTLSLSPGERATLSCRASQSISSYLNWYQQKPGQAPRLLIYDASNRAPGIPDRFSGSGSGTDFTLTISRLEPEDFAVYYCQQSYSIPITFGQGTKVEIK
B7: 抗CD300c单克隆抗体 SK13 (antibody, from another filing, V domains shown)
VH: RVQLLESGGGLVQPGGSLRLSCAASGFTFSDYAMSWVRQAPGKGLEWVSSISSSSSYIYYTDSVKGRFTISRDNSKNTLYLQMNSLRAEDTAVYYCARGGYGFDYWGQGTLVTVSS
VL: EIVLTQSPGTLSLSPGERATLSCRASQSISSYLNWYQQKPGQAPRLLIYSASSRPQGIPDRFSGSGSGTDFTLTISRLEPEDFAVYYCQQYDDLPFTFGQGTKVEIK
B8: 抗CD300c单克隆抗体 SK14 (antibody, from another filing)
chain: EVQLLESGGGLVQPGGSLRLSCAASGFTFSNFAIAWVRQAPGKGLEWVSAISGRGTSTYYADSVKGRFTISRDNSKNTLYLQMNSLRAEDTAVYYCARGVSGFDSWGQGTLVTVSSGGGGSGGGGSGGGGSEIVLTQSPGTLSLSPGERATLSCRASQSISSHLAWYQQKPGQAPRLLIYDTSNRATGIPDRFSGSGSGTDFTLTISRLEPEDFAVYYCQQSYSTPFTFGQGTKVEIK
B9: 抗CD300c单克隆抗体 SK15 (antibody, from another filing, V domains shown)
VH: B2 VH with E1R, G33A, S52N, M83T, S98R, Y100L, G101Q, L102G, M103F, V105Y
VL: B5 VL with R24Q, S25A, G28D, A34N, N53S, R54L, A55E, L96I
B10: 抗CD300c单克隆抗体 SK16 (antibody, from another filing, V domains shown)
VH: RVQLLESGGGLVQPGGSLRLSCAASGFTFSSYAMSWVRQAPGKGLEWVSAINGSGGSTLYADSVKGRFTISRDNSKNTLYLQMNSLRAEDTAVYYCARGVSGFDSWGQGTLVTVSS
VL: B5 VL with S25I, G28S, T30S, N31S, A34N, N53L, S93K, L96I
B11: 抗CD300c单克隆抗体 SK17 (antibody, from another filing, V domains shown)
VH: EVQLLESGGGLVQPGGSLRLSCAASGFTFSSYYWSWVRQAPGKGLEWVSTITGSGGSTDYANSVKGRFTISRDNSKNTLYLQMNSLRAEDTAVYYCATGGGIFDYWGQGTLVTVSS
VL: B5 VL with R24Q, S25A, G28T, T30S, A34N, S91Y, Y92N, T94Y, L96P, T97S
B12: 抗CD300c单克隆抗体 CK1 (antibody, from another filing, V domains shown)
VH: EVQLLESGGGLVQPGGSLRLSCAASGFTFSRYAMTWVRQAPGKGLEWVSSMSGTGGTTYYADSVKGRFTISRDNSKNTLYLQMNSLRAEDTAVYYCARGAYGFDHWGQGTLVTVSS
VL: B5 VL with S25A, G28S, T30G, A34N, R54L, A55E, Y92S, S93A, T94I, L96Y
B13: 抗CD300c单克隆抗体 CK2 (antibody, from another filing, V domains shown)
VH: B2 VH with G56T, T58I, S98R, Y100G, G101T, L102A, M103F, V105Y
VL: B5 VL with S25A, G28R, I29S, T30D, L96F, I106T
B14: 抗CD300c单克隆抗体 CK3 (antibody, from another filing, V domains shown)
VH: RVQLLESGGGLVQPGGSLRLSCAASGFTFSSYAISWVRQAPGKGLEWVSATSGSGRATYYADSVKGRFTISRDNSKNTLYLQMNSLRAEDTAVYYCARDTWWEGYFDLWGQGTLVTVSS
VL: EIVLTQSPGTLSLSPGERATLSCQASHISTHLNWYQQKPGQAPRLLIYGASSRATGIPDRFSGSGSGTDFTLTISRLEPEDFAVYYCQQYNTYPPTFGQGTKVEIK
B15: 抗CD300c单克隆抗体 CL4 (antibody, from another filing, V domains shown)
VH: RVQLLESGGGLVQPGGSLRLSCAASGFTFGSNYMSWVRQAPGKGLEWVSTISGSGTSTYYADSLKGRFTISRDNSKNTLYLQMNSLRAEDTAVYYCARGMWGMDVWGQGTLVTVSS
VL: QSVLTQPPSASGTPGQRVTISCTGKHRHTVNWYQLLPGTAPKLLIYLDSERPSGVPDRFSGSKSGTSASLAISGLRSEDEADYYCQSYDSSSVVFGGGTKLTVL
B16: 抗CD300c单克隆抗体 CL5 (antibody, from another filing, V domains shown)
VH: RVQLLESGGGLVQPGGSLRLSCAASGFTFSSYAMHWVRQAPGKGLEWVSSISGGGYGTYYADSVKGRFTISRDNSKNTLYLQMNSLRAEDTAVYYCARSTVWAFDIWGQGTLVTVSS
VL: QSVLTQPPSASGTPGQRVTISCSGNNIGSKSVHWYQQLPGTAPKLLIYDVSKRPSERPDRFSGSKSGTSASLAISDLRSEDEADYYCQSFDSSGTWIFGGGTKLTVL
B17: 抗CD300c单克隆抗体 CL6 (antibody, from another filing, V domains shown)
VH: EVQLLESGGGLVQPGGSLRLSCAASGFTFSSYGMHWVRQAPGKGLEWVSAISGSGGSTYYADSVKGRFTISRDNSKNTLYLQMNSLRAEDTAVYYCAVSGAGRGFFDYWGQGTLVTVSS
VL: QSVLTQPPSASGTPGQRVTISCSGSSSNIGSNYVYWYQQLPGTAPKLLIYEDNKRPSGVPDRFSGSKSGTSASLAISGLRSEDEADYYCSSYTSSSTVIFGGGTKLTVL

Molecular target: T1, CD300c overexpressed on the surface of 293T cells and THP-1 cells
Experiment: flow cytometry (FACS binding) on THP-1 cells overexpressing CD300c, FITC anti-human IgG (H+L), MFI

Binder | EC50 [nM]
B1 | 2.6

Molecular target: T2, CD300c抗原(11832-H08H，义翘神州)
Experiment: SPR, CD300c immobilised on CM5 chip (399.2 RU), CL7 0-6.25 μg/mL as analyte

Binder | Kd [nM]
B1 | 0.52

Molecular target: T3, 小鼠CD300c抗原 (小鼠 (mouse))
Experiment: cell-based or functional assay

Binder | 癌细胞增殖抑制作用 (CT26 mouse colorectal cancer cells, CCK-8, 10 μg/mL antibody, 5 days)
B1 | 66 %
B2 | 15 %
B3 | 38 %

Molecular target: T2, CD300c抗原(11832-H08H，义翘神州)
Experiment: binding ELISA, CD300c antigen coated at 8 μg/mL, HRP anti-Fc IgG

Binder | EC50 [µg/mL]
B1 | 0.047
B2 | 0.039
B3 | 0.17
B4 | 0.094
B5 | 0.052
B6 | 0.067
B7 | 0.044
B8 | 0.065
B9 | 14.7
B10 | 2.42
B11 | 0.054
B12 | 0.056
B13 | 0.033
B14 | 0.793
B15 | 0.031
B16 | 0.032
B17 | 0.148

Molecular target: T1, CD300c overexpressed on the surface of 293T cells and THP-1 cells
Experiment: flow cytometry (FACS binding) on 293T cells overexpressing CD300c, FITC anti-human IgG (H+L), MFI

Binder | EC50 [nM]
B1 | 2.7
